Results from patent publication US20120141382, “APTAMER MODULATORS OF COMPLEMENT PROTEIN C3 AND BIOLOGICALLY ACTIVE PROTEOLYTIC PRODUCTS THEREOF” (Research Foundation of State University of New York at …, published 2012).

Experiments:
Complement C3b [1] = molecular target: T1, Complement C3b (Homo sapiens, UniProt P01024;P01024 P01024:23-667,P01024:749-1663); test: filter; 20 mM Tris-HCl pH 7.6, 150 mM NaCl, 10 mM MgCl2; minimized version may have been used; conditions: tags: Quidel; label: 32P-CTP uniform
Experimental: (§1) Initially, RNA was heated to 65° C. for 10 minutes then switched to 37° C. for an additional 10 minutes before the addition of protein. The reactions were allowed to equilibrate for 15-20 minutes at ambient temperature before being subjected to Electrophoretic Mobility Shift Assay (“EMSA”) or filter binding.
(§2) For filter binding, the above-mentioned reaction mixture was immobilized on nitrocellulose (Millipore) using a manifold (Millipore) or a Bio-Dot SF (slot format) Microfiltration System (Bio-Rad, Hercules, Calif.). The nitrocellulose membrane was first soaked in binding buffer containing 20 mM Tris-Cl (pH 7.6), 150 mM NaCl, 10 mM MgCl₂. Nitrocellulose and two pieces of 3M Whatmann filter paper (3M) were assembled in the manifold as per company recommendations. Each well was washed with 1 ml of binding buffer. Samples were loaded in the wells and vacuum was applied to bind the complex, then each well was washed with 2 ml of binding buffer. The nitrocellulose membrane was then air dried and exposed to a phosphor screen (GE Healthcare) for 1 hour. The image was scanned using a Typhoon imager and ImageQuant software and the data was analyzed.

Complement iC3b [2] = molecular target: T2, Complement iC3b (Homo sapiens, UniProt P01024;P01024;P01024 P01024:23-667,P01024:749-1303,P01024:1321-1663); test: as above; conditions: tags: Calbiochem; label: 32P-CTP uniform
Experimental: as §1, §2

Complement C3 [3] = molecular target: T3, Complement C3 (Homo sapiens, UniProt P01024;P01024 P01024:23-667,P01024:672-1663); test: as above; conditions: tags: Calbiochem; label: 32P-CTP uniform
Experimental: as §1, §2

Complement C3b [4] = molecular target: T1, Complement C3b; test: EMSA; retarded band; conditions: tags: Quidel; label: 32P-CTP uniform; hairpin with apical loop and internal loop
Complement iC3b [5] = molecular target: T2, Complement iC3b; test: EMSA; retarded band; conditions: tags: Calbiochem; label: 32P-CTP uniform; hairpin with apical loop and internal loop
Complement C3 [6] = molecular target: T3, Complement C3; test: EMSA; retarded band; 2.5 mM MgCl2 gel, 4 C; conditions: tags: Calbiochem; label: 32P-CTP uniform; hairpin with apical loop and internal loop
Complement iC3b [7] = molecular target: T2, Complement iC3b; test: filter; no binding by filter assay and EMSA; conditions: tags: Calbiochem; label: 32P-CTP uniform
Experimental: as §1, §2

Complement C3b [8] = molecular target: T1, Complement C3b; test: filter; 20 mM Tris-HCl pH 7.6, 150 mM NaCl, 10 mM MgCl2; conditions: tags: Quidel; label: 32P-CTP uniform
Experimental: as §1, §2

Complement C3 [9] = molecular target: T3, Complement C3; test: filter; 20 mM Tris-HCl pH 7.6, 150 mM NaCl, 10 mM MgCl2; does not compete with AptC3-1; conditions: tags: Calbiochem; label: 32P-CTP uniform
Experimental: as §1, §2

T1 sequence (P01024 23-667, chain 1 of 2): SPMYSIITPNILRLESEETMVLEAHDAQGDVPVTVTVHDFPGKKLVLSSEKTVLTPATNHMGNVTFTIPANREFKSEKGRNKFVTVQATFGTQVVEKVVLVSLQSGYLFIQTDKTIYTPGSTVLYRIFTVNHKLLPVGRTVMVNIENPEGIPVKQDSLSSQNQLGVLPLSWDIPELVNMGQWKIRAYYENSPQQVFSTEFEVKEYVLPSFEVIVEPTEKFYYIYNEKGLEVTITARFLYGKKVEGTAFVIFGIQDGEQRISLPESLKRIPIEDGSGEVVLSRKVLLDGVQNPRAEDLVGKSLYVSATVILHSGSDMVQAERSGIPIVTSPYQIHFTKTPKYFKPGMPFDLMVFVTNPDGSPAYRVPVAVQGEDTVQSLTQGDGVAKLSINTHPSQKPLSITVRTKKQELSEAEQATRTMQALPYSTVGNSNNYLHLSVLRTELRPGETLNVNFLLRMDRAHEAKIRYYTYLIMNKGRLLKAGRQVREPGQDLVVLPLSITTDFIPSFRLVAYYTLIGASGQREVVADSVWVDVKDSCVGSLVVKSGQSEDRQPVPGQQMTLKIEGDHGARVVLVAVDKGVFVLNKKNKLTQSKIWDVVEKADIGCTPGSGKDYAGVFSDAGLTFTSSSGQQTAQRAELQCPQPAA
T1 sequence (P01024 749-1663, chain 2 of 2): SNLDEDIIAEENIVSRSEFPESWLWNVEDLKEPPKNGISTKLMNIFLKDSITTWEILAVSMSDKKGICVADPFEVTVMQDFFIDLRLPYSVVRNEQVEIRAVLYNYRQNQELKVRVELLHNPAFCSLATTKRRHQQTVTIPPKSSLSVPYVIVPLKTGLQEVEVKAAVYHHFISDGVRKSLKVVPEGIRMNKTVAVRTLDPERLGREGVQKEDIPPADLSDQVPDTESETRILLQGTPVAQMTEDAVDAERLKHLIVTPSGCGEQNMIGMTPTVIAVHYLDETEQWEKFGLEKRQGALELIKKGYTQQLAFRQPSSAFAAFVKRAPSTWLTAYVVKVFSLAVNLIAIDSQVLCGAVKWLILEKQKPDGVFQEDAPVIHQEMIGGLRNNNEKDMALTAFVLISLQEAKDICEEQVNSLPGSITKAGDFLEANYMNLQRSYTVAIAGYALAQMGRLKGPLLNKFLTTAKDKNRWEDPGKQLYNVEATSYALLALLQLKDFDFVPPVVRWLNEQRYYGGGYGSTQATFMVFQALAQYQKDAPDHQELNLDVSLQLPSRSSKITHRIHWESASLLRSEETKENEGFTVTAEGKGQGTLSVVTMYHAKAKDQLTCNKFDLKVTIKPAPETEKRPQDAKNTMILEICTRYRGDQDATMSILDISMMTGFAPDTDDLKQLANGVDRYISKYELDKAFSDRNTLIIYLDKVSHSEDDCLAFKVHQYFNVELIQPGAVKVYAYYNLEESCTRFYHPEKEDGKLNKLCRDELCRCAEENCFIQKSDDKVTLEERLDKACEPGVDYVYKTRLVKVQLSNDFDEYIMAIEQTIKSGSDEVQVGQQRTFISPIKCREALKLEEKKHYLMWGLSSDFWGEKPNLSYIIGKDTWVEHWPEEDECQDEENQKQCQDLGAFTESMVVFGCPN
T3 sequence (P01024 23-667, chain 1 of 2): as the sequence (P01024 23-667, chain 1 of 2) above
T3 sequence (P01024 672-1663, chain 2 of 2): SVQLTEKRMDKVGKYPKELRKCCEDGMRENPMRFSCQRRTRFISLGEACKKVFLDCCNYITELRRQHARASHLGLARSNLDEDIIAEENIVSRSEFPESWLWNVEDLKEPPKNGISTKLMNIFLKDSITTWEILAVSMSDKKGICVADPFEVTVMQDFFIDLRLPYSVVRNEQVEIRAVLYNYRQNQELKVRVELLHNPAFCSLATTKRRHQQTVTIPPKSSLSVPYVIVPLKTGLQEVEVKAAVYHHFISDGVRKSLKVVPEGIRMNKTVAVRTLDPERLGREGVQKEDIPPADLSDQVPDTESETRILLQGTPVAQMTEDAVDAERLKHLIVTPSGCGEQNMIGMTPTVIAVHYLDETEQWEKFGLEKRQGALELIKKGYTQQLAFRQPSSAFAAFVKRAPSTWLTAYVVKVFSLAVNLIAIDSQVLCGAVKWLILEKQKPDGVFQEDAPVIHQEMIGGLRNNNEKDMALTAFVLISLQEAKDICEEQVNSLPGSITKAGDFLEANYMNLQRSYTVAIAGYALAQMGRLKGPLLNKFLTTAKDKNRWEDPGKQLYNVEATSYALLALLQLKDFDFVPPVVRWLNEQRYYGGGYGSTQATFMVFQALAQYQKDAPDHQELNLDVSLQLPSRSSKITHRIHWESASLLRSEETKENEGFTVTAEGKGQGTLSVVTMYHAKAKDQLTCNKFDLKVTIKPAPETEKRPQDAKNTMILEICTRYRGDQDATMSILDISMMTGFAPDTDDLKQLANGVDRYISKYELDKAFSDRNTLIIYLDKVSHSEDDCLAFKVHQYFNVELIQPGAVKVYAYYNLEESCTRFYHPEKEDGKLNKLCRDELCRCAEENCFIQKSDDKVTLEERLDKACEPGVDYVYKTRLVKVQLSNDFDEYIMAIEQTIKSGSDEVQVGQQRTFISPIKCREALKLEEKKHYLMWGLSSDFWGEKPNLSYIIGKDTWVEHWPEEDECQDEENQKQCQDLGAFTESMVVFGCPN
T2 sequence (P01024 23-667, chain 1 of 3): as the sequence (P01024 23-667, chain 1 of 2) above
T2 sequence (P01024 749-1303, chain 2 of 3): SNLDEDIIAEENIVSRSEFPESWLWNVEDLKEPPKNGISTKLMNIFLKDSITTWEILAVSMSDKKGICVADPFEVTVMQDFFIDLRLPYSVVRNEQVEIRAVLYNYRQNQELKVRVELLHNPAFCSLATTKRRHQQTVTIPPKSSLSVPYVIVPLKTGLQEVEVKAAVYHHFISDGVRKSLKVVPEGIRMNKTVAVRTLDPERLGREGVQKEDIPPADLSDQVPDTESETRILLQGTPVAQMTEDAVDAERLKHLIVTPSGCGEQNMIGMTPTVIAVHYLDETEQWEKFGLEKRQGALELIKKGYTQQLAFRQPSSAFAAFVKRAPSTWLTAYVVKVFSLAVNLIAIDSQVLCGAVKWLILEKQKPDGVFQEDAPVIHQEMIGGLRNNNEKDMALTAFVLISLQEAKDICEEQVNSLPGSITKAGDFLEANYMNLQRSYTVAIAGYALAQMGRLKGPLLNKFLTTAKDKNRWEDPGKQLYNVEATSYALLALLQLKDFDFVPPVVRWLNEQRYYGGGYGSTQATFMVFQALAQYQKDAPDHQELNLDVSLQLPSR
T2 sequence (P01024 1321-1663, chain 3 of 3): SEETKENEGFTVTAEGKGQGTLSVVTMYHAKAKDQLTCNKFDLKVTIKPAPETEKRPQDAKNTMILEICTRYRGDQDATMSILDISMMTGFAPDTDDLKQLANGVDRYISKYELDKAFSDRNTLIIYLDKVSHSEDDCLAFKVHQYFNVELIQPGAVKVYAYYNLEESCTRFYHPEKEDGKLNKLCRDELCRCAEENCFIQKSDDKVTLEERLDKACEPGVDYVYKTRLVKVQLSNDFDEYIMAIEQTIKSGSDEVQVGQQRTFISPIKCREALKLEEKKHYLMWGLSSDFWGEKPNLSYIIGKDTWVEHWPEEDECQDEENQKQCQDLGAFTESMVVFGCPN

B1: AptC3-1 (ssRNA)
RNA: GGGAGAAUUCAACUGCCAUCUAGGCUAGAAGAAUAUGACGGAUUGACCGUAUCAGGGUAGCCGAAGGGAGACAGAAGUACUACAAGCUUCUGGACUCGGU
Complement C3b [1]
  Kd: ~20 nM
Complement iC3b [2]
  Kd: ~20 nM
Complement C3 [3]
  Kd: ~20 nM

## GGGCUAGAAGAAUAUGACGGAUUGACCGUAUCAGGGUAGCCG (ssRNA) [MiniAptC3-1]
Complement C3b [4]
  binding result: binds
Complement iC3b [5]
  binding result: binds
Complement C3 [6]
  binding result: binds

B2: AptC3-2 (ssRNA)
RNA: GGGAGAAUUCAACUGCCAUCUAGGCAAAUCCGCGAGCGCCGGUACCGGUGGCGCAUGCCCACACAGCACUAAACGAGUACUACAAGCUUCUGGACUCGGU
Complement iC3b [7]
  binding result: no binding
Complement C3b [8]
  Kd: 30 nM
Complement C3 [9]
  Kd: 30 nM
